[ ]: non-standard residue; d: D form. The star is where a group is joined. FITC = O=C1OC2(c3ccc(O)cc3Oc3cc(O)ccc32)c2ccc(NC(=S)*)cc21; Abu = CC[C@H](N)C(=O)O; βAla = NCCC(=O)O
T1: HDAC6 BUZ domain (without GST tag) (UniProt Q9UBN7 1059-1215)
T1 sequence (looked up): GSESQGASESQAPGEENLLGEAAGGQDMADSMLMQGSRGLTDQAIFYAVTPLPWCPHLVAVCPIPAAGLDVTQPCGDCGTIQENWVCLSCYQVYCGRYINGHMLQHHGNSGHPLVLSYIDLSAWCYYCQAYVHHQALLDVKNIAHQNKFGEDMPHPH


Columns and labels:
Test in all cases: fluorescence polarisation
[1] = target: (His)6-tagged Ubp-M BUZ domain (UniProt Q9Y5T5 22-143)
Target sequence in this assay (Q9Y5T5 22-143): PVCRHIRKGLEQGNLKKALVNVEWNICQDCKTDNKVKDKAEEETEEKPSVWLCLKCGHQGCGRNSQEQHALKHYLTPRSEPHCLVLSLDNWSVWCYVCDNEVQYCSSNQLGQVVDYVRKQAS

[2] = target: (His)6-tagged Ubp-M BUZ domain (UniProt Q9Y5T5 22-143); remark: listed apart in the source
Target sequence in this assay (Q9Y5T5 whole entry, looked up, the tested form may be a part): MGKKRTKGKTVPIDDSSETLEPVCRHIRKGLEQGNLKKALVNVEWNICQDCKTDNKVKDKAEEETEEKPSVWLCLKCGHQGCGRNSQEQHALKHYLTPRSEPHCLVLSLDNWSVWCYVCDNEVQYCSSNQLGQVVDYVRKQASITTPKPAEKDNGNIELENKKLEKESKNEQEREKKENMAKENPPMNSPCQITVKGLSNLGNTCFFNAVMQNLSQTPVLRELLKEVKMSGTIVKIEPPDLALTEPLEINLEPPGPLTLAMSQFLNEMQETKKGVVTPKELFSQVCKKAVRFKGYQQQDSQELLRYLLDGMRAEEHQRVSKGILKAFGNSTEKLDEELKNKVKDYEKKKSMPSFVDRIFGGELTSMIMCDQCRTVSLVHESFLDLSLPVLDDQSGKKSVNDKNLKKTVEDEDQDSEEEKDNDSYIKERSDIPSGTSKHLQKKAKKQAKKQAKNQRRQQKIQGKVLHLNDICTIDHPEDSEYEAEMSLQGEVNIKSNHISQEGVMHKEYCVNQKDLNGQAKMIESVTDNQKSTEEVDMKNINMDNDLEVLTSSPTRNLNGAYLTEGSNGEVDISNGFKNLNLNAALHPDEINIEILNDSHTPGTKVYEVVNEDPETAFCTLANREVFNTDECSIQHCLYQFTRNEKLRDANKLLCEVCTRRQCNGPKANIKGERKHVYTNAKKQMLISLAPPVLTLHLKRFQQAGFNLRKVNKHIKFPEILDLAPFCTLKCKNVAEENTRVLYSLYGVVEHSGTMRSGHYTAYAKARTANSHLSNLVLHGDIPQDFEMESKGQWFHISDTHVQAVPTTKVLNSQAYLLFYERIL

GST-HDAC6 BUZ = GST-HDAC6 BUZ (UniProt Q9UBN7 1059-1215)
[3] = target: T1, HDAC6 BUZ domain (without GST tag)

Row | Binder | Kd [1] [µM] | also measured
1 | {FITC-βAla-βAla}-YGFGG-OH (SMILES O=C(O)CNC(=O)CNC(=O)[C@H](Cc1ccccc1)NC(=O)CNC(=O)[C@H](Cc1ccc(O)cc1)NC(=O)CCNC(=O)CCNC(=S)Nc1ccc2c(c1)C(=O)OC21c2ccc(O)cc2Oc2cc(O)ccc21) [FITC-β-Ala-β-Ala-YGFGG] | 13 ± 3 | 
2 | {FITC-βAla-βAla}-IAKGG-OH (SMILES CC[C@H](C)[C@H](NC(=O)CCNC(=O)CCNC(=S)Nc1ccc2c(c1)C(=O)OC21c2ccc(O)cc2Oc2cc(O)ccc21)C(=O)N[C@@H](C)C(=O)N[C@@H](CCCCN)C(=O)NCC(=O)NCC(=O)O) [FITC-β-Ala-β-Ala-IAKGG] | 12 ± 3 | 
3 | {FITC-βAla-βAla}-Y[Abu]IGG-OH (SMILES CC[C@H](NC(=O)[C@H](Cc1ccc(O)cc1)NC(=O)CCNC(=O)CCNC(=S)Nc1ccc2c(c1)C(=O)OC21c2ccc(O)cc2Oc2cc(O)ccc21)C(=O)N[C@H](C(=O)NCC(=O)NCC(=O)O)[C@@H](C)CC) [FITC-β-Ala-β-Ala-YUIGG] |  | Kd [2]: 12 ± 2 µM; Kd (GST-HDAC6 BUZ): 1.3 ± 0.1 µM
4 | {FITC-βAla-βAla}-RGMGG-OH (SMILES CSCC[C@H](NC(=O)CNC(=O)[C@H](CCCNC(=N)N)NC(=O)CCNC(=O)CCNC(=S)Nc1ccc2c(c1)C(=O)OC21c2ccc(O)cc2Oc2cc(O)ccc21)C(=O)NCC(=O)NCC(=O)O) [FITC-β-Ala-β-Ala-RGMGG] | 17 ± 3 | 
5 | {FITC-βAla-βAla}-LQDGF-OH (SMILES CC(C)C[C@H](NC(=O)CCNC(=O)CCNC(=S)Nc1ccc2c(c1)C(=O)OC21c2ccc(O)cc2Oc2cc(O)ccc21)C(=O)N[C@@H](CCC(N)=O)C(=O)N[C@@H](CC(=O)O)C(=O)NCC(=O)N[C@@H](Cc1ccccc1)C(=O)O) [FITC-β-Ala-β-Ala-LQDGF] | > 150 | 
6 | {FITC-βAla-βAla}-NALGG-OH (SMILES CC(C)C[C@H](NC(=O)[C@H](C)NC(=O)[C@H](CC(N)=O)NC(=O)CCNC(=O)CCNC(=S)Nc1ccc2c(c1)C(=O)OC21c2ccc(O)cc2Oc2cc(O)ccc21)C(=O)NCC(=O)NCC(=O)O) [FITC-β-Ala-β-Ala-NALGG] | 33 ± 7 | Kd [3]: 0.23 ± 0.02 µM

Reference: paper PMC3005221 (Biochemistry, 2010)
